Assay [1] deals with PhlA subunit of the acyltransferase from Pseudomonas protegens DSM 19095 (PpATase) (Pseudomonas protegens DSM 19095). Nature of the assay: crystal structure; PpATase complex (PhlA, PhlB, PhlC co-expressed, purified by SEC); hexagonal crystal form (P6_(1)22, untreated, 2.8 Å) and orthorhombic crystal form (P2_(1)2_(1)2_(1), soaked with MAPG, 3.4 Å); crystallised at 289 K; protein-protein interactions in the crystal analysed with the EBI-Pisa server.

Assay [2] deals with T1, PpATase (multicomponent acyltransferase, PhlA/PhlB/PhlC) (Pseudomonas protegens, UniProt Q4K420).
T1 construct: codon-optimized phlA, phlB, phlC ORFs co-expressed in E. coli; size-exclusion purified for crystals, cell-free extract for activity; heterododecamer Phl(A2C2)2B4; with 2,4-diacetylphloroglucinol biosynthesis protein PhlA; 2,4-diacetylphloroglucinol biosynthesis protein PhlB
Nature of the assay: X-ray crystal structure ([…] Å) of crystal soaked with MAPG. The assay is classed as binding. The note with it: PG bound at PhlC active site (4 of 8 PhlC copies) next to acetylated Cys88; formed in the crystal from soaked MAPG.

Assay [3] addresses PhlC subunit of the acyltransferase from Pseudomonas protegens DSM 19095 (PpATase) (Pseudomonas protegens DSM 19095). Nature of the assay: crystal structure; PpATase complex (PhlA, PhlB, PhlC co-expressed, purified by SEC); hexagonal crystal form (P6_(1)22, untreated, 2.8 Å) and orthorhombic crystal form (P2_(1)2_(1)2_(1), soaked with MAPG, 3.4 Å); crystallised at 289 K; protein-protein interactions in the crystal analysed with the EBI-Pisa server. On the technique in general: Size exclusion chromatography separates by hydrodynamic size, large species first.

Broadly, the stoichiometry N is a count of units in the complex or per binding partner. As to “PhlA subunit of the acyltransferase from Pseudomonas protegens DSM 19095 (PpATase) (natural protein)”, the stoichiometry N in assay [1] amounted to 2.
For the molecule `Oc1cc(O)cc(O)c1` [PG, benzene‐1,3,5‐triol], the “X-ray crystal structure (3.4 Å) of crystal soaked with MAPG” value in assay [2] was “This density was compatible with an acetylated Cys88 residue and with a (deacetylated) PG molecule”.
As for “PhlC subunit of the acyltransferase from Pseudomonas protegens DSM 19095 (PpATase) (natural protein)”, the stoichiometry N in assay [3] is 2.

These data come from paper PMC6392133, “Structure and Catalytic Mechanism of a Bacterial Friedel–Crafts Acylase” (Chembiochem, 2018).
